Test results reported in patent US20240052038A1 (IMMUNOBRAIN CHECKPOINT, published 2024).
Residue numbers refer to the chain shown, from its start. In names and notes the source's numbering stands. Each block holds one binder with its values, some of them ahead of it.

Experiments:
[1] = molecular target: T1, cynomolgus monkey PD-L1 on blood T lymphocytes (cynomolgus monkey, UniProt G7PSE7 19-290); experiment: receptor occupancy on blood T lymphocytes by flow cytometry, cynomolgus monkeys, up to day 12 after 13 mg/kg IV
T1 construct: also called PD-L1 receptor (cynomolgus T cells)
T1 sequence (G7PSE7 entry or part of it limits assumed): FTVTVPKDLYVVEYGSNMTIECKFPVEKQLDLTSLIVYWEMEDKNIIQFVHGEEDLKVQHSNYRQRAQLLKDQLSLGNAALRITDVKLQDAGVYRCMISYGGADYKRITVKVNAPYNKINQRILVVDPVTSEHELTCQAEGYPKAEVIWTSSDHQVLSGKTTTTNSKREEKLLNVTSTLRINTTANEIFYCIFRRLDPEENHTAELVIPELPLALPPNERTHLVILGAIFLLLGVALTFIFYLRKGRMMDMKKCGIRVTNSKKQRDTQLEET
Method: (§1) Blood (8 mL) for PBMC isolation was collected at least one day prior to dose and 5, 14, 21 and 30-days post-injection. […] All collected blood and serum samples were frozen for subsequent analysis. […] These antibodies came from a different expression system using transfected HEK cells. Blood (8 mL) for PBMC isolation was collected at least one day prior to dose and 5, 14, 21, 30 and 45-days post-injection. […] All collected blood and serum samples were frozen for subsequent analysis.
(§2) One day prior to dosing (baseline), and on 5, 14, 21, and 30-days post treatment, 8 mL of whole blood was collected for Peripheral Blood Mononuclear Cell (PBMC) isolation and cryopreservation. In the second study, whole blood was also collected also at 45-days post treatment. Samples were analyzed for PD-L1 receptor occupancy on blood T lymphocytes and for Immunophenotype of different immune cell subpopulations. The percentage of PD-L1 receptor occupancy on blood T-lymphocytes by the antibody was assessed using the same method as described above for receptor occupancy in mice.

[2] = molecular target: T1, cynomolgus monkey PD-L1 on blood T …; experiment: receptor occupancy on blood T lymphocytes by flow cytometry, cynomolgus monkeys, day 20 after 13 mg/kg IV (antibody cleared)
Method: as §1, §2

[3] = molecular target: T2, human PD-L1 (human, UniProt Q9NZQ7 19-238, limits assumed); experiment: SPR, kinetics
T2 construct: also called hPD-L1; Programmed Death-Ligand 1
T2 sequence (Q9NZQ7 19-238 limits assumed): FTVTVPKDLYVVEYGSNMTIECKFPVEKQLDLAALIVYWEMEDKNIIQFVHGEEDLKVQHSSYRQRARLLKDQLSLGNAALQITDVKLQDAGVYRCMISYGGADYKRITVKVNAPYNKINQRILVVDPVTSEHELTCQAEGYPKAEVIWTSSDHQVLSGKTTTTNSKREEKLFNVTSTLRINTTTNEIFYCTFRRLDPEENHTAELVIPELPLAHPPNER

[4] = molecular target: T2, human PD-L1; experiment: SPR
[5] = molecular target: cynomolgus monkey PD-L1 (cynomolgus monkey, UniProt G7PSE7 19-238); experiment: SPR
Sequence of cynomolgus monkey PD-L1 (G7PSE7 entry or part of it limits assumed): as the sequence (Q9NZQ7 19-238 limits assumed) above, with A33T, A34S, S62N, R68Q, Q82R, F173L, T185A, T192I, H215L counted along it

receptor occupancy [2]: < 20%
B3: Variant 4-G09 (Fc effector null-H315A + H440Q) (antibody, human IgG1, kappa, L234A L235A)
heavy: EVQLVESGGGLVQPGRSLRLSCAASGFTFDDYAMHWVRQTPGKGLEWVSGISWKSNIIGYADSVKGRFTISRDNAKNSLYLQMNSLRAEDTALYYCARDITGSGSYGWFDPWGQGTLVTVSSASTKGPSVFPLAPSSKSTSGGTAALGCLVKDYFPEPVTVSWNSGALTSGVHTFPAVLQSSGLYSLSSVVTVPSSSLGTQTYICNVNHKPSNTKVDKRVEPKSCDKTHTCPPCPAPEAAGGPSVFLFPPKPKDTLMISRTPEVTCVVVDVSHEDPEVKFNWYVDGVEVHNAKTKPREEQYNSTYRVVSVLTVLAQDWLNGKEYKCAVSNKALPAPIEKTISKAKGQPREPQVYTLPPSREEMTKNQVSLTCLVKGFYPSDIAVEWESNGQPENNYKTTPPVLDSDGSFFLYSKLTVDKSRWQQGNVFSCSVMHEALHNQYTQKSLSLSPG
light: DIQMTQSPSSLSASVGDRVTITCRASQSISSYLNWYQQKPGKAPKPLIYVASSLQSGVPSSFSGSGSGTDFTLTISSLQPEDFATYYCQQSYSNPITFGQGTRLEIKRTVAAPSVFIFPPSDEQLKSGTASVVCLLNNFYPREAKVQWKVDNALQSGNSQESVTEQDSKDSTYSLSSTLTLSKADYEKHKVYACEVTHQGLSSPVTKSFNRGEC
notes: Human IgG1 with L239A, L240A, K327A, H315A and H440Q; kappa light chain; also called double mutant

Kd [3]: 0.4 nM
Kd [4]: 0.43 nM
Kd [5]: 0.52 nM
B5: human anti-PD-L1 monoclonal antibody 84G09 (antibody, V domains shown)
VH: EVQLVESGGGLVQPGRSLRLSCAASGFTFDDYAMHWVRQTPGKGLEWVSGISWKSNIIGYADSVKGRFTISRDNAKNSLYLQMNSLRAEDTALYYCARDITGSGSYGWFDPWGQGTLVTVSS
VL: DIQMTQSPSSLSASVGDRVTITCRASQSISSYLNWYQQKPGKAPKPLIYVASSLQSGVPSSFSGSGSGTDFTLTISSLQPEDFATYYCQQSYSNPITFGQGTRLEIK
notes: also called anti-human PD-L1 antibody (clone 84G09)

The remaining lines, values behind:

B1: Variant 1-G09 (Fc effector null) (antibody, human IgG1, kappa, L234A L235A)
heavy: B3 heavy with A315H, Q440H
light: B3 light
notes: Human IgG1 with L239A, L240A, K327A; kappa light chain; also called null mutant
receptor occupancy [1]: > 80%

B2: Variant 3-G09 (Fc effector null-H440Q) (antibody, human IgG1, kappa, L234A L235A)
heavy: B3 heavy with A315H
light: B3 light
notes: Human IgG1 with L239A, L240A, K327A and H440Q; kappa light chain
receptor occupancy [1]: > 80%
receptor occupancy [2]: < 20%

B4: Variant 2-G09 (Fc effector null-H315A) (antibody, human IgG1, kappa, L234A L235A)
heavy: B3 heavy with Q440H
light: B3 light
notes: Human IgG1 with L239A, L240A, K327A and H315A; kappa light chain
receptor occupancy [1]: > 80%
receptor occupancy [2]: < 20%
